Key:
Human glu-plasminogen = test: ELISA; conditions: 5 μg/ml immobilized CbiA protein, 10 μg/ml plasminogen, polyclonal antibody 1:1,000, read off a plot
[1] = target: His6-tagged CbiA of B. miyamotoi (B. miyamotoi); test: ELISA; proteins (5 μg/ml) immobilised, plasminogen in the presence of increasing concentrations of NaBr; binding without NaBr set to 100%
[2] = target: His6-tagged CbiA of B. miyamotoi (B. miyamotoi); test: ELISA; CbiA (5 μg/ml) immobilised, increasing concentrations of plasminogen; non-linear regression, one-site specific binding model; apparent dissociation constant
[3] = target: His6-tagged CbiA of B. miyamotoi (B. miyamotoi); test: ELISA; proteins (5 μg/ml) immobilised, plasminogen in the presence of increasing concentrations of the lysine analog tranexamic acid; binding without tranexamic acid set to 100%

Substance	response (Absorbance at 490 nm) (Human glu-plasminogen; parent: est. 0.78)	response (Absorbance at 490 nm) (Human glu-plasminogen; parent: est. 0.72)	other results
His6-tagged CbiA of B. miyamotoi R163A	0.74		
His6-tagged CbiA of B. miyamotoi K153A		1.1	
Human glu-plasminogen (natural protein)			percent of binding at 250 mM NaBr (without NaBr = 100%) [1]: 43%; Kd [2]: 347 nM; percent decrease of binding with 0.1 mM tranexamic acid [3]: > 17%; percent of binding at 10 mM tranexamic acid (without tranexamic acid = 100%) [3]: 48%
His6-tagged CbiA of B. miyamotoi R145A	0.66		
His6-tagged CbiA of B. miyamotoi K154A		0.83	
His6-tagged CbiA of B. miyamotoi K154A; K162A; K188A		1	
His6-tagged CbiA of B. miyamotoi R156A	0.6		
His6-tagged CbiA of B. miyamotoi K154A; R156A	0.58		
His6-tagged CbiA of B. miyamotoi K188A		0.81	
His6-tagged CbiA of B. miyamotoi K162A		1	
His6-tagged CbiA of B. miyamotoi R185A	0.81		
His6-tagged CbiA of B. miyamotoi K153A; K154A; K162A; K188A		1	
His6-tagged CbiA of B. miyamotoi K154A; K162A		0.9	
